We go through 13 molecules from patent publication US20210284709A1 (JUNO THERAPEUTICS, published 2021).

Assay [1] concerns the target HLA-A2/E7(11-19) tetramer (human; HPV 16). Kind of assay: cell-based or functional assay.
Assay [2] deals with HLA-A2/E6(29-38) tetramer (human; HPV 16). The assay is described as follows: cell-based or functional assay.
Assay [3] has as its target T1, HLA-A2/E6(29-38) tetramer (human; HPV 16).
T1 construct: also called E6(29-38) peptide-MHC tetramer; E6 tet
Kind of assay: flow cytometry, tetramer + anti-CD8; transfected Jurkat-derived cells, CD8+ cells. For orientation: Flow cytometry measures light scatter and fluorescence of single cells or particles in a stream.
Protocol: (§1) For transfection, the CD4+ and CD4+/CD8+ cell mixtures were transiently transfected with TCR-encoding plasmids and 48 hours after transfection, cells were assessed by flow cytometry for (1) binding of the target peptide in the context of an MHC molecule (HLA:A02:01) by staining with an E6(29-38) peptide- or an E7(11-19) peptide-MHC tetramer reagent, and/or (2) CD8+ independent binding of the target by co-staining the tetramer-labeled cells with an anti-CD8 antibody.

In assay [4] the target is T1, HLA-A2/E6(29-38) tetramer. Kind of assay: flow cytometry, tetramer + anti-CD8; transfected mix of CD8- and CD8+ Jurkat-derived cells.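 Also: CD4+ and CD4+/CD8+ cell mixtures transiently given TCR plasmids, analysed 48 h post-transfection by flow cytometry with E6(29-38)–HLA-A*02:01 tetramer plus anti-CD8 antibody co-stain.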
Protocol: as §1
The target of assay [5] is T1, HLA-A2/E6(29-38) tetramer. The assay is described as follows: tetramer staining of clonal T cell line vs control.

B1: modified version of TCR 3 (TCR)
TCR alpha: AQKITQTQPGMFVQEKEAVTLDCTYDTSDQSYGLFWYKQPSSGEMIFLIYQGSYDEQNATEGRYSLNFQKARKSANLVISASQLGDSAMYFCAMREGRGFKTIFGAGTRLFVKANIQKPDPAVYQLRDSKSSDKSVCLFTDFDSQTNVSQSKDSDVYITDKCVLDMRSMDFKSNSAVAWSNKSDFACANAFNNSIIPADTFFPSPESSCDVKLVEKSFETDTNLNFQNLSVIGFRILLLKVAGFNLLMTLRLWSS
TCR beta: GAGVSQSPRYKVAKRGQDVALRCDPISGHVSLFWYQQALGQGPEFLTYFQNEAQLDKSGLPSDRFFAERPEGSVSTLKIQRTQQEDSAVYLCASSHLAGFTGELFFGEGSRLTVLEDLKNVFPPEVAVFEPSEAEISHTQKATLVCLATGFYPDHVELSWWVNGKEVHSGVCTDPQPLKEQPALNDSRYCLSSRLRVSATFWQNPRNHFRCQVQFYGLSENDEWTQDRAKPVTQIVSAEAWGRADCGFTSESYQQGVLSATILYEILLGKATLYAVLVSALVLMAMVKRKDSRG
Take B1: the entries for the “% CD8+/IC IFNγ+” value in assay [1] and in assay [2] were 2.51% and 95.1%, respectively.

B2: modified version of TCR 9 (TCR)
TCR alpha: AQKITQTQPGMFVQEKEAVTLDCTYDTSDPSYGLFWYKQPSSGEMIFLIYQGSYDQQNATEGRYSLNFQKARKSANLVISASQLGDSAMYFCAMRTAGGTSYGKLTFGQGTILTVHPNIQNPDPAVYQLRDSKSSDKSVCLFTDFDSQTNVSQSKDSDVYITDKCVLDMRSMDFKSNSAVAWSNKSDFACANAFNNSIIPEDTFFPSPESSCDVKLVEKSFETDTNLNFQNLSVIGFRILLLKVAGFNLLMTLRLWSS
TCR beta: NAGVTQTPKFRVLKTGQSMTLLCAQDMNHEYMYWYRQDPGMGLRLIHYSVGEGTTAKGEVPDGYNVSRLKKQNFLLGLESAAPSQTSVYFCASSYFGTAYEQYFGPGTRLTVTEDLKNVFPPEVAVFEPSEAEISHTQKATLVCLATGFYPDHVELSWWVNGKEVHSGVCTDPQPLKEQPALNDSRYCLSSRLRVSATFWQNPRNHFRCQVQFYGLSENDEWTQDRAKPVTQIVSAEAWGRADCGFTSESYQQGVLSATILYEILLGKATLYAVLVSALVLMAMVKRKDSRG
With B2, in assay [3], the “% cells E6 tet+/CD8+ quadrant” value was found to be 42.5% and the “% cells E6 tet+/CD8- quadrant” value was 0.051%. In addition, the “% CD8+/IC IFNγ+” value in assay [1] was determined as 19.5%. Besides, in assay [2], the “% CD8+/IC IFNγ+” value worked out at 91.1%.

B3: TCR 21 (codon-optimized, cysteine-modified) (TCR, V domains shown)
V domain 1: AQKITQTQPGMFVQEKEAVTLDCTYDTSDQSYGLFWYKQPSSGEMIFLIYQGSYDEQNATEGRYSLNFQKARKSANLVISASQLGDSAMYFCAMREGRVTGGGNKLTFGTGTQLKVEL
V domain 2: NAGVTQTPKFQVLKTGQSMTLQCAQDMNHNSMYWYRQDPGMGLRLIYYSASEGTTDKGEVPNGYNVSRLNKREFSLRLESAAPSQTSVYFCASRPWGNQNTEAFFGQGTRLTVVE
On to B3, for which, in assay [4], the “% cells E6 tet+/CD8+ quadrant” value is 28.8% and the “% cells E6 tet+/CD8- quadrant” value is 32.7%. In assay [3], the “% cells E6 tet+/CD8+ quadrant” value was 51.6% and the “% cells E6 tet+/CD8- quadrant” value was determined as 0.22%.

B4: modified version of TCR 7 (TCR, V domains shown)
V domain 1: KNQVEQSPQSLIILEGKNCTLQCNYTVSPFSNLRWYKQDTGRGPVSLTIMTFSENTKSNGRYTATLDADTKQSSLHITASQLSDSASYICVVSRDNYGQNFVFGPGTRLSVLP
V domain 2: EPEVTQTPSHQVTQMGQEVILRCVPISNHLYFYWYRQILGQKVEFLVSFYNNEISEKSEIFDDQFSVERPDGSNFTLKIRSTKLEDSAMYFCAITDRTNYGYTFGSGTRLTVVE
B4: the “% CD8+/IC IFNγ+” value came to 62.4% in assay [1] and 70.5% in assay [2].

B5: modified version of TCR 5 (TCR, V domains shown)
V domain 1: AQKITQTQPGMFVQEKEAVTLDCTYDTSDQSYGLFWYKQPSSGEMIFLIYQGSYDEQNATEGRYSLNFQKARKSANLVISASQLGDSAMYFCAMREGTGTSYGKLTFGQGTILTVHP
V domain 2: DVKVTQSSRYLVKRTGEKVFLECVQDMDHENMFWYRQDPGLGLRLIYFSYDVKMKEKGDIPEGYSVSREKKERFSLILESASTNQTSMYLCASSPWGETHQPQHFGDGTRLSILE
As to B5, the “% CD8+/IC IFNγ+” value in assay [1] was found to be 7.22%; in assay [2], 43.7%.

B6: TCR 18 (codon-optimized, cysteine-modified) (TCR, V domains shown)
V domain 1: KQEVTQIPAALSVPEGENLVLNCSFTDSAIYNLQWFRQDPGKGLTSLLLIQSSQREQTSGRLNASLDKSSGRSTLYIAASQPGDSATYLCAEGNAGGTSYGKLTFGQGTILTVHP
V domain 2: DVKVTQSSRYLVKRTGEKVFLECVQDMDHENMFWYRQDPGLGLRLIYFSYDVKMKEKGDIPEGYSVSREKKERFSLILESASTNQTSMYLCASSFWGRSNSPLHFGNGTRLTVTE
With B6, in assay [4], the “% cells E6 tet+/CD8+ quadrant” value came out at 23.3% and the “% cells E6 tet+/CD8- quadrant” value came to 3.61%. Moreover, in assay [3], the “% cells E6 tet+/CD8+ quadrant” value was 50.4% and the “% cells E6 tet+/CD8- quadrant” value was determined as 0.045%.

B7: TCR 23 (codon-optimized, cysteine-modified) (TCR, V domains shown)
V domain 1: AQKITQTQPGMFVQEKEAVTLDCTYDTSDQSYGLFWYKQPSSGEMIFLIYQGSYDEQNATEGRYSLNFQKARKSANLVISASQLGDSAMYFCAMSPPGGSARQLTFGSGTQLTVLP
V domain 2: DVKVTQSSRYLVKRTGEKVFLECVQDMDHENMFWYRQDPGLGLRLIYFSYDVKMKEKGDIPEGYSVSREKKERFSLILESASTNQTSMYLCASSPWGQSNQPQHFGDGTRLSILE
B7: in assay [4], the “% cells E6 tet+/CD8+ quadrant” value was determined as 52.5% and the “% cells E6 tet+/CD8- quadrant” value was 22.5%. Also, in assay [3], the “% cells E6 tet+/CD8+ quadrant” value came out at 43.6% and the “% cells E6 tet+/CD8- quadrant” value worked out at 0.18%.

B8: TCR 24 (codon-optimized, cysteine-modified) (TCR, V domains shown)
V domain 1: AQKITQTQPGMFVQEKEAVTLDCTYDTSDQSYGLFWYKQPSSGEMIFLIYQGSYDEQNATEGRYSLNFQKARKSANLVISASQLGDSAMYFCAMREGRGDSWGKLQFGAGTQVVVTP
V domain 2: DVKVTQSSRYLVKRTGEKVFLECVQDMDHENMFWYRQDPGLGLRLIYFSYDVKMKEKGDIPEGYSVSREKKERFSLILESASTNQTSMYLCASSPFGRGSYEQYFGPGTRLTVTE
Take B8: in assay [4], the “% cells E6 tet+/CD8+ quadrant” value was 55% and the “% cells E6 tet+/CD8- quadrant” value was 23.5%. For the same molecule, in assay [3], the “% cells E6 tet+/CD8+ quadrant” value amounted to 29.1% and the “% cells E6 tet+/CD8- quadrant” value was determined as 0.13%.

B9: TCR 17 (codon-optimized, cysteine-modified) (TCR, V domains shown)
V domain 1: AQKITQTQPGMFVQEKEAVTLDCTYDTSDPSYGLFWYKQPSSGEMIFLIYQGSYDQQNATEGRYSLNFQKARKSANLVISASQLGDSAMYFCAMREGRGDKIIFGKGTRLHILP
V domain 2: DVKVTQSSRYLVKRTGEKVFLECVQDMDHENMFWYRQDPGLGLRLIYFSYDVKMKEKGDIPEGYSVSREKKERFSLILESASTNQTSMYLCASSLWGRSNQPQHFGDGTRLSILE
As for B9, in assay [4], the “% cells E6 tet+/CD8+ quadrant” value turned out to be 36.2% and the “% cells E6 tet+/CD8- quadrant” value was found to be 21.3%. Moreover, in assay [3], the “% cells E6 tet+/CD8+ quadrant” value worked out at 34.7% and the “% cells E6 tet+/CD8- quadrant” value turned out to be 0.17%.

B10: modified version of TCR 4 (TCR)
TCR alpha: DAKTTQPNSMESNEEEPVHLPCNHSTISGTDYIHWYRQLPSQGPEYVIHGLTSNVNNRMASLAIAEDRKSSTLILHRATLRDAAVYYCILLVIRGTSYGKLTFGQGTILTVHPNIQNPDPAVYQLRDSKSSDKSVCLFTDFDSQTNVSQSKDSDVYITDKCVLDMRSMDFKSNSAVAWSNKSDFACANAFNNSIIPEDTFFPSPESSCDVKLVEKSFETDTNLNFQNLSVIGFRILLLKVAGFNLLMTLRLWSS
TCR beta: DTGVSQDPRHKITKRGQNVTFRCDPISEHNRLYWYRQTLGQGPEFLTYFQNEAQLEKSRLLSDRFSAERPKGSFSTLEIQRTEQGDSAMYLCASSPGGGNTEAFFGQGTRLTVVEDLNKVFPPEVAVFEPSEAEISHTQKATLVCLATGFFPDHVELSWWVNGKEVHSGVCTDPQPLKEQPALNDSRYCLSSRLRVSATFWQNPRNHFRCQVQFYGLSENDEWTQDRAKPVTQIVSAEAWGRADCGFTSVSYQQGVLSATILYEILLGKATLYAVLVSALVLMAMVKRKDF
Turning to B10, the entries for the “% CD8+/IC IFNγ+” value in assay [1] and in assay [2] were 2.5% and 94.2%, respectively.

B11: TCR 27 (codon-optimized, cysteine-modified) (TCR, V domains shown)
V domain 1: DAKTTQPNSMESNEEEPVHLPCNHSTISGTDYIHWYRQLPSQGPEYVIHGLTSNVNNRMASLAIAEDRKSSTLILHRATLRDAAVYYCILRVPPQSGGYQKVTFGTGTKLQVIP
V domain 2: NAGVTQTPKFQVLKTGQSMTLQCAQDMNHNSMYWYRQDPGMGLRLIYYSASEGTTDKGEVPNGYNVSRLNKREFSLRLESAAPSQTSVYFCASSEFGSLNEKLFFGSGTQLSVLE
As for B11, the “% cells E6 tet+/CD8+ quadrant” value in assay [4] turned out to be 15.8%; in assay [3], 24.5%. For the same molecule, the “% cells E6 tet+/CD8- quadrant” value is 3.5% in assay [4] and 0.02% in assay [3].

B12: modified version of TCR 8 (TCR, V domains shown)
V domain 1: KQEVTQIPAALSVPEGENLVLNCSFTDSAIYNLQWFRQDPGKGLTSLLLIQSSQREQTSGRLNASLDKSSGRSTLYIAASQPGDSATYLCAVRPLGNTPLVFGKGTRLSVIA
V domain 2: KVTQSSRYLVKRTGEKVFLECVQDMDHENMFWYRQDPGLGLRLIYFSYDVKMKEKGDIPEGYSVSREKKERFSLILESASTNQTSMYLCASSLWGASTDTQYFGPGTRLTVLE
On to B12, for which the “% CD8+/IC IFNγ+” value in assay [1] worked out at 11.4%; in assay [2], 95%.

B13: TCR 10 (native, clonal T cell line) (TCR, V domains shown)
V domain 1: RKEVEQDPGPFNVPEGATVAFNCTYSNSASQSFFWYRQDCRKEPKLLMSVYSSGNEDGRFTAQLNRASQYISLLIRDSKLSDSATYLCVVNFPSRGAGGTSYGKLTFGQGTILTVHP
V domain 2: DVKVTQSSRYLVKRTGEKVFLECVQDMDHENMFWYRQDPGLGLRLIYFSYDVKMKEKGDIPEGYSVSREKKERFSLILESASTNQTSMYLCASSLSLTGNYGYTFGSGTRLTVVE
Consider B13, for which, in assay [5], the binding result is “binds”.
